Data set [1] is classed as physicochemical. Particulars: 10 μM peptide, pH 7.0, 20° C. The protocol: The circular dichroism (measured in units of ellipticity) of proteins at 222 nm provides a measure of the amount of a-helix present in the structure, with a large, negative ellipticity indicting a high level of helicity. The coiled-coil has a distinctive a-helical CD spectrum with minima at 222 nm and 208 nm (O'Shea et al., 1989, Science, 243: 538–542). The CD spectra of the unmodified Zip3 and its phosphorylated form (‘Zip3P’) are determined at a sample concentration of 10 μM in 150 mM KCB, 42.2 mM K2HPO4, 7.8 mM KH2PO4, pH 7.0 at 20° C.; spectra are recorded using a 1 mm pathlength cell in a Jasco J-715 spectropolarimeter with a Jasco PTC-348W Peltier temperature control unit. Peptide concentration is determined by tyrosine absorbance at 280 nm in 6M GuHCl. […] The effipticities of Zip3 and Zip3P at 222 nm with increasing temperature are measured. The steep portion of the sigmoid curve for Zip3 indicates the unfolding of the molecule. It is clear that this leucine zipper peptide begins to unfold at around 35° C. and is completely unfolded by 70° C. […]
The circular dichroism (measured in units of ellipticity) of proteins at 222 nm provides a measure of the amount of a-helix present in the structure, with a large, negative ellipticity indicting a high level of helicity. […] In all experiments described herein, peptide concentration is determined by tyrosine absorbance at 280 nm in 6M GnHCl.

The next data set has as its system chymotrypsin. In words: Time-course digestion with chymotrypsin, MALDI-TOF. Format: biochemical. The procedure:
A time-course digestion of Peptide A with chymotrypsin is analysed by MALDI-TOF mass spectrometry. On the protein matrix (MS, denoted SA on each spectrogram) the Peptide A substrate as 4245 Da is evident. […] The C-terminal fragment appears to be cleaved at a second site (after L-26) generating a product of 1100 Da, although the final peptide fragment of about 990 Da is not observed in the MS.

The next data set relates to peptide D. In words: FRET of fluorescein-labelled peptides N and C with rhodamine-labelled peptide D. It is filed as binding. Particulars: no peptidase.
The next data set deals with carboxypeptidase. Briefly: Carboxypeptidase digestion, FRET. It is filed as biochemical.
Another data set concerns aminopeptidase. Briefly: Aminopeptidase digestion, FRET. Format: biochemical.
In the next data set the target is PKA (Homo sapiens, UniProt P17612). Briefly: Timecourse of phosphorylation by PKA (32P-ATP). Format: biochemical. Particulars: 0.2 mM ATP. The protocol:
A timecourse of phosphorylation of these peptides by PKA is run in 50 mM histidine/HCl (pH 7.0), 5 mM MgSO4, 5 mM NaF, 0.05 mM EGTA, 120 mM kcb with 0.2 mM ATP (30.9 cpm/pmol ^32P-ATP) and 0.5 μM PKA. […] Zip4T is also phosphorylated, at a slower rate, with full phosphorylation achieved in 30 minutes in this assay. In this assay, the difference in cpm recovered between the Zip4 peptides and PL919Y is due to the difference in recovery of these peptides on P81 paper. The plateau indicates full phosphorylation.
A set of timecourses of phosphorylation is performed on Zip4S using PKA and Ca^2+/Calmodulin-dependent Protein Kinase (CaMK-II), together with positive and negative controls for CaMK-II (these controls confirm that the preparation of CaMK-II posesses the expected characteristics of that enzyme). PKA phosphorylation is performed in 50 mM histidine/HCl (pH 7.0), 5 mM MgSO4, 5 mM NaF, 0.05 mM EGTA, 120 mM kcb with 0.2 mM ATP (39.72 cpm/pmol ^32P-ATP) and 0.25 μM PKA. CaMK-II phosphorylation is performed in 50 mM histidine/HCl (pH 7.0), 5 mM MgSO4, 5 mM NaF, 120 mM kcb, 0.5 mM Ca^2+, 0.037 mg/ml calmodulin with 0.2 mM ATP (39.72 cpm/pmol ^32P-ATP) and 10% crude CaMK-II. In the Ca^2+-free experiment, Ca^2+ is replaced by 0.05 mM EGTA. […]

The subject of data set [2] is Ca^2+/Calmodulin-dependent Protein Kinase (CaMK-II). Briefly: Timecourse of phosphorylation by CaMK-II (32P-ATP). As to conditions: 10% crude CaMK-II, 0.5 mM Ca^2+, 0.037 mg/ml calmodulin, 0.2 mM ATP. Format: biochemical. The protocol:
A set of timecourses of phosphorylation is performed on Zip4S using PKA and Ca^2+/Calmodulin-dependent Protein Kinase (CaMK-II), together with positive and negative controls for CaMK-II (these controls confirm that the preparation of CaMK-II posesses the expected characteristics of that enzyme). PKA phosphorylation is performed in 50 mM histidine/HCl (pH 7.0), 5 mM MgSO4, 5 mM NaF, 0.05 mM EGTA, 120 mM kcb with 0.2 mM ATP (39.72 cpm/pmol ^32P-ATP) and 0.25 μM PKA. CaMK-II phosphorylation is performed in 50 mM histidine/HCl (pH 7.0), 5 mM MgSO4, 5 mM NaF, 120 mM kcb, 0.5 mM Ca^2+, 0.037 mg/ml calmodulin with 0.2 mM ATP (39.72 cpm/pmol ^32P-ATP) and 10% crude CaMK-II. In the Ca^2+-free experiment, Ca^2+ is replaced by 0.05 mM EGTA. […] Such specificity of a modification site in a polypeptide according to the invention is a clear advantage for use of the invention in an intracellular assay, or for measuring the activity of a particular polypeptide modifying agent in a complex mixture such as a cell lysate.

For data set [3], the target named is T1, Peptide 4 (SEQ ID NO. 56) (fluorescein label, by the procedure of Example 10 (not restated)).
T1 construct: Immobilised peptide of the caspase reporter; also called Peptides 4
T1 peptide: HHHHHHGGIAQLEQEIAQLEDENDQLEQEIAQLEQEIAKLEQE
In words: FRET, procedure of Example 10.

The next data set concerns the target T2, Pep 1.
T2 construct: Unphosphorylated; immobilised by its His tag on a Ni-NTA sensor chip in the Biacore assay
T2 peptide: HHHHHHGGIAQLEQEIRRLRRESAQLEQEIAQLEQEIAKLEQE
In words: statement in Example 3.

Data set [4] has as its target T3, Peptide 3 (SEQ ID NO. 54), labelled with fluorescein (fluorescein at the lysine residue).
T3 construct: also called peptides 3
T3 peptide: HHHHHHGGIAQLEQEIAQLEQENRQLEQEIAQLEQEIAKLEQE
In words: FRET, Peptide 3 immobilised.

For data set [5], the target named is T4, Pep 1F (Pep 1 peptide labelled with fluorescein) (not fully specified; fluorescein label; the lysine residue is inserted for labelling purposes).
T4 construct: Unphosphorylated
T4 peptide: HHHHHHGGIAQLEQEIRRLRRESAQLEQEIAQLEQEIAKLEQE
In words: FRET in solution, 50 µM Pep 1F and 50 µM Pep 2R, 37 °C. The procedure:
Fluorescence emission of fluorescein is measured at 520 nm by exciting at appropriate wavelength (450 nm). Pep 2R (Pep 2 labelled with rhodamine) at concentrations equal to that of Pep 1F (50 μM) is added and the fluorescence emission of Pep 1F and Pep 2R are monitored.

Another data set concerns the target T5, Zip4SF (fluorescein label (on the cysteine residue, by analogy with Zip3F)).
T5 construct: read as Zip4S with fluorescein, like Zip3F; also called Zip4S labelled with fluorescein
T5 peptide: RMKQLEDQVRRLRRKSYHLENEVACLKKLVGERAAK
Briefly: FRET in solution.

Data set [6] has as its target T6, Peptide C, fluorescein-labelled (fluorescein label (site said to be 'the C and K residues as before', but the entry has neither Cys nor Lys)).
T6 peptide: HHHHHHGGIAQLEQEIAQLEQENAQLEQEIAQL
Briefly: FRET, peptide C immobilised.

Data set [7] concerns the target T7, Peptide N, fluorescein-labelled (fluorescein label at the K residue).
T7 peptide: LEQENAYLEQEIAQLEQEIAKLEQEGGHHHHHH
Briefly: FRET, peptide N immobilised.

No end group written: not given here. rhodamine = not defined here

For “HHHHHHGGIAQLEQEIAQLEQENAYLEQEIAQLEQEIAKLEQE [Peptide A]”, the “CD spectrum (structure indicated)” value in data set [1] is on record as “classic coiled-coil”. In the data set with chymotrypsin, the digestion by chymotrypsin entry was “degraded completely over two hours”.
Turning to “LEQENAYLEQEIAQLEQEIAKLEQEGGHHHHHH [Peptide N]”, the “FRET in the presence of rhodamine-labelled peptide D” value with peptide D is recorded as “FRET is observed”. Also, the “FRET of pair with peptide D after addition of carboxypeptidase” value in the data set with carboxypeptidase is “not affected”. The “FRET of pair with peptide D after addition of aminopeptidase” value in the data set on aminopeptidase is listed as “complete loss of FRET”.
“R MKQLEDQ VRRLRRK SYHLENE VACLKKL VGERAAK (RMKQLEDQVRRLRRKSYHLENEVACLKKLVGERAAK) [Zip4S]”: in the data set with PKA (0.25 μM PKA), the “extent of phosphorylation by PKA” value is listed as “complete phosphorylation”. Moreover, in the data set with PKA (0.5 μM PKA, compared with known substrate PL919Y), the “phosphorylation by PKA (substrate quality, rate)” value is “good substrate”. Further, the “phosphorylation by CaMK-II” value in data set [2] is reported as “unable to phosphorylate”.
Take IAQLKQKIAQLKQKNAQLKQKIAQLKQKICQLKQK (also: rhodamine label by procedure, site not given here) [Peptide 44 (SEQ ID NO. 57)]: the binding result in data set [3] is on record as “binds”.
Turning to IAQLKQEIAQLKQKNAQLKQKIAQLKQKICQLKQK [Pep 2], in the data set with Pep 1, the binding result is given as “binds”.
For IAQLKQKIAQLKQKNAQLKQKIAQLKQKIC(rhodamine)QLKQK (reading uncertain) [peptide 33 (SEQ ID NO. 55), labelled with rhodamine], the binding result in [4] is listed as “binds”.
In the case of IAQLKQEIAQLKQKNAQLKQKIAQLKQKIC(rhodamine)QLKQK (reading uncertain) [Pep 2R (Pep 2 peptide labelled with rhodamine)], in data set [5], the binding result is given as “binds”.

B1: Zip4SR (peptide)
peptide: RMKQLEDQVRRLRRKSYHLENEVACLKKLVGERAAK
modifications: also: rhodamine label, read from undefined name by analogy with Zip3R
notes: read as Zip4S with rhodamine, like Zip3R; also called Zip4S labelled with rhodamine
Consider B1, for which, in the data set with Zip4SF, the binding result is listed as “binds”.
For the molecule IAQLKQKIAQLKQKNAQLKQKIAQLKQKIC(rhodamine)QLKQK (reading uncertain) [Peptide D, rhodamine-labelled], the binding result in data set [6] and in data set [7] was “binds” each time.

(Values after patent publication US7166475B2, “Compositions and methods for monitoring the modification state of a pair of polypeptides” (Cyclacel Ltd., priority 1999, dated 2007).)
